Reference: patent US20240261333A1 (published 2024)

T1: IMMT (human, UniProt Q16891-4 34-757, limits assumed)
T1 construct: also called NP_001093639.1 (+3)
T1 sequence (looked up): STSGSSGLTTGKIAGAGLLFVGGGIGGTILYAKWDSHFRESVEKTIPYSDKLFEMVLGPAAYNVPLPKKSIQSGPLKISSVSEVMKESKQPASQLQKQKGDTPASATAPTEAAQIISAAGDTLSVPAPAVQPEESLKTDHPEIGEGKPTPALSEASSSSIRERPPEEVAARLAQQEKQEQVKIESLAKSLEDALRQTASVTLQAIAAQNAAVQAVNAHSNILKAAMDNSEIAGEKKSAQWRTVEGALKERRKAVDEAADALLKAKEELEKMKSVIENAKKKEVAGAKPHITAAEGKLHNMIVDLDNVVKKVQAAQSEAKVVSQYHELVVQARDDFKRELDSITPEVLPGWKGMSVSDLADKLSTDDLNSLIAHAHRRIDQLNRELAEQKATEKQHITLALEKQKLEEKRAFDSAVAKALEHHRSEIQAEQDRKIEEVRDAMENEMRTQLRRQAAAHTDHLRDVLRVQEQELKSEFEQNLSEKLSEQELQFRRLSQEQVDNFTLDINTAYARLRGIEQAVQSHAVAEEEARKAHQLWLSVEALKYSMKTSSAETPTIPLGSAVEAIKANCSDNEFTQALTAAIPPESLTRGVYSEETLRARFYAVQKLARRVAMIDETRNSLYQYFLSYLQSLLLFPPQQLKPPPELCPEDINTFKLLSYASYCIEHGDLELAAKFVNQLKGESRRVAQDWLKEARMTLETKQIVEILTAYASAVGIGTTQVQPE

T2: SRSF6 (human, UniProt Q13247 1-344)
T2 construct: also called NP_006266.2
T2 sequence (looked up): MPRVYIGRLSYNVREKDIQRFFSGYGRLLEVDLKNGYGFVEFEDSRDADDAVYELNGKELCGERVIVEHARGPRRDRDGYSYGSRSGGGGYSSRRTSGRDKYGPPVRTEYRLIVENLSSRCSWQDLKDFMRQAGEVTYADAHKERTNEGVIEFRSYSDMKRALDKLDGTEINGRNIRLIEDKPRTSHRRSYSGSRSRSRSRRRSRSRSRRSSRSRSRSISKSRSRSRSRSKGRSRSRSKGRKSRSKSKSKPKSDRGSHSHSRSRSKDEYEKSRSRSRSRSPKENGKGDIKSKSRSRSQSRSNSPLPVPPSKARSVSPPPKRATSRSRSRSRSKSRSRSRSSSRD

T3: RBM14 (human, UniProt Q96PK6 1-669)
T3 construct: also called XP_006319.1
T3 sequence (looked up): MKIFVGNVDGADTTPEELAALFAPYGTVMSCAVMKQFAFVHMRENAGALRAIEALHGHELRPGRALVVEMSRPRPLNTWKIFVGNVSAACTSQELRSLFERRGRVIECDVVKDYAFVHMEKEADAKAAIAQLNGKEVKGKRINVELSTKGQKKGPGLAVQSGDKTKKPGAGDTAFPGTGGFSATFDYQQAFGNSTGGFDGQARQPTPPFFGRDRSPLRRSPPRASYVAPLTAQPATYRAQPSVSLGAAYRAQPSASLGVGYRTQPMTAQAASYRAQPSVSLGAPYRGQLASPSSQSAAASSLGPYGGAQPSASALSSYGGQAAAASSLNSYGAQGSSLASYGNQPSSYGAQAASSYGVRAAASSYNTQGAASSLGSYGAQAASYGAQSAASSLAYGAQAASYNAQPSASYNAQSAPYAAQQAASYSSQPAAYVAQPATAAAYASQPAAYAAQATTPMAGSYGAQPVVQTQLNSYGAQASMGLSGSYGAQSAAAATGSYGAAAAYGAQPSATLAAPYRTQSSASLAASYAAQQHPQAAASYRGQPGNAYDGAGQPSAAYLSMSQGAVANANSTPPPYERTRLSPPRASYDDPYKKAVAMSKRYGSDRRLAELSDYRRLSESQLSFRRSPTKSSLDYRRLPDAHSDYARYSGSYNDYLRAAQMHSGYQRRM

B1: N-terminal FLAG tagged B3GNT2 (enzyme, human, UniProt Q9NY97 1-397, looked up)
chain: MSVGRRRIKLLGILMMANVFIYFIMEVSKSSSQEKNGKGEVIIPKEKFWKISTPPEAYWNREQEKLNRQYNPILSMLTNQTGEAGRLSNISHLNYCEPDLRVTSVVTGFNNLPDRFKDFLLYLRCRNYSLLIDQPDKCAKKPFLLLAIKSLTPHFARRQAIRESWGQESNAGNQTVVRVFLLGQTPPEDNHPDLSDMLKFESEKHQDILMWNYRDTFFNLSLKEVLFLRWVSTSCPDTEFVFKGDDDVFVNTHHILNYLNSLSKTKAKDLFIGDVIHNAGPHRDKKLKYYIPEVVYSGLYPPYAGGGGFLYSGHLALRLYHITDQVHLYPIDDVYTGMCLQKLGLVPEKHKGFRTFDIEEKNKNNICSYVDLMLVHSRKPQEMIDIWSQLQSAHLKC
notes: FLAG-tagged ORF overexpressed in cells; pulled down from lysate with mouse anti-FLAG; also called N-FLAG B3GNT2; N-term FLAG; not shown: N-terminal FLAG tag
B2: N-terminal FLAG tagged B3GNT2 (enzyme, human, UniProt Q9NY97 1-397, looked up)
chain: MSVGRRRIKLLGILMMANVFIYFIMEVSKSSSQEKNGKGEVIIPKEKFWKISTPPEAYWNREQEKLNRQYNPILSMLTNQTGEAGRLSNISHLNYCEPDLRVTSVVTGFNNLPDRFKDFLLYLRCRNYSLLIDQPDKCAKKPFLLLAIKSLTPHFARRQAIRESWGQESNAGNQTVVRVFLLGQTPPEDNHPDLSDMLKFESEKHQDILMWNYRDTFFNLSLKEVLFLRWVSTSCPDTEFVFKGDDDVFVNTHHILNYLNSLSKTKAKDLFIGDVIHNAGPHRDKKLKYYIPEVVYSGLYPPYAGGGGFLYSGHLALRLYHITDQVHLYPIDDVYTGMCLQKLGLVPEKHKGFRTFDIEEKNKNNICSYVDLMLVHSRKPQEMIDIWSQLQSAHLKC
notes: FLAG-tagged ORF overexpressed in A375 cells; pulled down from the lysate with mouse anti-FLAG; also called N-FLAG B3GNT2; N-term FLAG; not shown: N-terminal FLAG tag

Experiments:
Test in all cases: co-IP with anti-FLAG, N-FLAG B3GNT2, mass spectrometry
[1] = target: T1, IMMT
[2] = target: T4, TM9SF1 (human, UniProt O15321-2 28-489, limits assumed)
T4 construct: also called NP_001014842.1 (+1)

[3] = target: T2, SRSF6
[4] = target: T3, RBM14
[5] = target: RPL7A (human, UniProt P62424 1-266)
[6] = target: T5, CLTC (human, UniProt Q00610 2-1675, limits assumed)
T5 construct: also called NP_001275582.1 (+2)
T5 sequence (Q00610 2-1675 limits assumed): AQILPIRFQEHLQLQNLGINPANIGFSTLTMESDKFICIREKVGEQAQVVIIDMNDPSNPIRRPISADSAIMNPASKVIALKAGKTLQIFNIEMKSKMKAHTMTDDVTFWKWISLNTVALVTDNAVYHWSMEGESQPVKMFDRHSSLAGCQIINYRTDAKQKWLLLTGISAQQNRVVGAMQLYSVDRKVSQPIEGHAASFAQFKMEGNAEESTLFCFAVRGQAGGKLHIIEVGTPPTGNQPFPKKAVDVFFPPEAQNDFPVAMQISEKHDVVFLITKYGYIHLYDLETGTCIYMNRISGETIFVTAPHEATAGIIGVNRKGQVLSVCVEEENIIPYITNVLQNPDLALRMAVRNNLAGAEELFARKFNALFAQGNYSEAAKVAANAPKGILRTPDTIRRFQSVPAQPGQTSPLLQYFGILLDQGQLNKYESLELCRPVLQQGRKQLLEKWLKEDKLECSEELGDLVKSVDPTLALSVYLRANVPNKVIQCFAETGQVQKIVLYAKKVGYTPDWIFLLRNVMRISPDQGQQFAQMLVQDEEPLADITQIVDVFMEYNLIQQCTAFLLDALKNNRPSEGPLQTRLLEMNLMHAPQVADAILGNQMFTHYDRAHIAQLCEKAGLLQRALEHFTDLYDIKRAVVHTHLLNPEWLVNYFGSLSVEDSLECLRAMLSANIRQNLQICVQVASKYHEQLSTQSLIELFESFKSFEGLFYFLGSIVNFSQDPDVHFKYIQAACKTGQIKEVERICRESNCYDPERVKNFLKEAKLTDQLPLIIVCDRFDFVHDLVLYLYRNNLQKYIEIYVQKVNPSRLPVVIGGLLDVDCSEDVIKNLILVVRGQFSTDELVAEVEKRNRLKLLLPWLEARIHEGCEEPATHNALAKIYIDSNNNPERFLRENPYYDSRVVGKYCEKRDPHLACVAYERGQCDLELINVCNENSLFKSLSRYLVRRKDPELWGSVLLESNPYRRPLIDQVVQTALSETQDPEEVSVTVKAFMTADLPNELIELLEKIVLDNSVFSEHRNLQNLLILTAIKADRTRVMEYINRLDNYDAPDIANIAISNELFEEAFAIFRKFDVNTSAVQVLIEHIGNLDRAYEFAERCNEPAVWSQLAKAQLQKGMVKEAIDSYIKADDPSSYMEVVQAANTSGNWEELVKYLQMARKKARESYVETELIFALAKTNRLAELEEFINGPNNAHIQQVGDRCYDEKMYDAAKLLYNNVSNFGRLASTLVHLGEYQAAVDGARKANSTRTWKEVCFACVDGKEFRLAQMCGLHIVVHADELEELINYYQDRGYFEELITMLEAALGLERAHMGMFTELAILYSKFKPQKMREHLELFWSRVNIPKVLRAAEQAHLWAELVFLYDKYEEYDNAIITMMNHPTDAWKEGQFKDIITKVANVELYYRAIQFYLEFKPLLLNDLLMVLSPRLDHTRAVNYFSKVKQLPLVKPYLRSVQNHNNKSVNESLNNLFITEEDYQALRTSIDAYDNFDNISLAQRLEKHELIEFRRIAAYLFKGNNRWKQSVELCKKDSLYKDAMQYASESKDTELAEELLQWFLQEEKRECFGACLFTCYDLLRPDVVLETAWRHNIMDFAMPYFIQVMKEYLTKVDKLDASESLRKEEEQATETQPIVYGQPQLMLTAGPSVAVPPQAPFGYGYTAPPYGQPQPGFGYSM

T4 sequence (O15321 other isoform, or with tags, fused parts or gaps limits assumed): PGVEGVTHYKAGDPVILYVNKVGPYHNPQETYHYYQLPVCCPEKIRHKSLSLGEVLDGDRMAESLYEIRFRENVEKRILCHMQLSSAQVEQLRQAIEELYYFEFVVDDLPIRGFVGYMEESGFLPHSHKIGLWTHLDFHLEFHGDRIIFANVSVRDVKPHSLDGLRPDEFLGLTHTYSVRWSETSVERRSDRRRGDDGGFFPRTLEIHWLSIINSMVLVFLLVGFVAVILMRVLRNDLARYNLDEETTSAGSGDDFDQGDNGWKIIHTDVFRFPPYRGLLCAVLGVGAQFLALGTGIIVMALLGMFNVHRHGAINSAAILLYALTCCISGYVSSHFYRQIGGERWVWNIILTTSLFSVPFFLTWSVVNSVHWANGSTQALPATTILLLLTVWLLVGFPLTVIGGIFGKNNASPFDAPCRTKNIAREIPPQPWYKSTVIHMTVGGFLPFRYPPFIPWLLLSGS

Binder	co-IP mass spectrometry count [1]	co-IP/MS count, N-term FLAG [2]	co-IP/MS count, N-term FLAG [3]	co-IP/MS count, N-term FLAG [4]	co-IP/MS count, N-term FLAG [5]	co-IP/MS count, N-term FLAG [6]
B1	23					
B2		0	6	3	8	6
